According to article PMC8562343:

Molecular target: Transportin-1 (TNPO1) (UniProt Q92973)
Assay: ITC; MicroCal VP-ITC, 28 injections of 8 µl at 25°C; 50 mM Tris-HCl pH 7.5, 150 mM NaCl, 5 mM TCEP, 0.04% NaN3; standard one-site model; which protein was in the syringe is not given

UniProt Q92973, sequence (Q92973 whole entry): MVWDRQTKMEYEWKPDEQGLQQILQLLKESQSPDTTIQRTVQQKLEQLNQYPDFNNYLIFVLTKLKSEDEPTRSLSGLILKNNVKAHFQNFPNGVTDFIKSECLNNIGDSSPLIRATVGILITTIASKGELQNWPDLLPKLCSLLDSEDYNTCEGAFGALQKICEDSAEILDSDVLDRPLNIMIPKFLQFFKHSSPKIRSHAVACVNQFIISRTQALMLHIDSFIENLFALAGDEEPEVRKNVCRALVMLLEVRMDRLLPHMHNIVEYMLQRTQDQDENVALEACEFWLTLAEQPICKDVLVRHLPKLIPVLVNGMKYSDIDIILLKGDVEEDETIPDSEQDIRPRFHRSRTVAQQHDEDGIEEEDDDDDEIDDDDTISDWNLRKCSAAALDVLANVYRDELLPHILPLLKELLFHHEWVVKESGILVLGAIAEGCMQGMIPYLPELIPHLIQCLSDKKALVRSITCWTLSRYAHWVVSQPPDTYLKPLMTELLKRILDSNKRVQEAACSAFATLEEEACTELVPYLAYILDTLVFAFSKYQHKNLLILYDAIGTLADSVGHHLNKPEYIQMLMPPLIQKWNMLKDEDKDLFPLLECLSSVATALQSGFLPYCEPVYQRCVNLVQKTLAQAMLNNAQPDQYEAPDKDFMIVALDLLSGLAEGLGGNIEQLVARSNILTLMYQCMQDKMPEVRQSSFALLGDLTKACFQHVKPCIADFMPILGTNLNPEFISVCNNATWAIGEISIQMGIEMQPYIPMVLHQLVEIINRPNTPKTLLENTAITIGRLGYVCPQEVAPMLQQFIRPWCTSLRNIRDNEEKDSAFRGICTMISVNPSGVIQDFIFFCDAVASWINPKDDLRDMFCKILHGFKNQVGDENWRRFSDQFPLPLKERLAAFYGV

- Kd: 124 nM
Substance: RG/RGG region of cold-inducible RNA-binding protein (CIRBP-RGG, amino acids 68-137) (from UniProt Q14011 68-137) (domain or fragment)
